Test results published in patent US7033999B2, “Nitrosated and nitrosylated heme proteins” (Brigham and Women's Hospital, priority 1991, dated 2006).
Like-named read-outs stand apart in the source and are kept apart here.

How the values were obtained:
[1] = molecular target: T1, fibrinogen (Homo sapiens, UniProt P02671+P02675+P02679); assay: Binding of t-PA and S—NO-t-PA to fibrinogen-coated wells (ELISA)
T1 construct: purchased Enzyme Research Laboratories, South Bend, Ind
T1 sequence (P02671 20-629 limits assumed): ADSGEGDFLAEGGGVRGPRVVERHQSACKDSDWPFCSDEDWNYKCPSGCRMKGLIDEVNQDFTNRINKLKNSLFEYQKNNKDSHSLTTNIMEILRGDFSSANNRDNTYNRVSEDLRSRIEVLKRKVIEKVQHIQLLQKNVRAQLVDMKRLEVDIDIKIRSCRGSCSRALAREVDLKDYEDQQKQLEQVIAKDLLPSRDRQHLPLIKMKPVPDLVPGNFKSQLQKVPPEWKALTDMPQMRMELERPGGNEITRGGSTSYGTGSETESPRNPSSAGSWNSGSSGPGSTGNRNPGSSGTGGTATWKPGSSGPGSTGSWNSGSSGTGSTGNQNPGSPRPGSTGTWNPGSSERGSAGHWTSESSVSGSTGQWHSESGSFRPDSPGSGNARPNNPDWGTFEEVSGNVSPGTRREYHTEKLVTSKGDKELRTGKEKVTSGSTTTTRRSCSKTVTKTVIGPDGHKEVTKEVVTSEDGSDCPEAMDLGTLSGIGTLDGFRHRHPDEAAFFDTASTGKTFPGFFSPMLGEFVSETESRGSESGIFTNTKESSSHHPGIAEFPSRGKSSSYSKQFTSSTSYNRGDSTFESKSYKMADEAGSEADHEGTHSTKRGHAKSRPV
T1 sequence (P02675 31-491): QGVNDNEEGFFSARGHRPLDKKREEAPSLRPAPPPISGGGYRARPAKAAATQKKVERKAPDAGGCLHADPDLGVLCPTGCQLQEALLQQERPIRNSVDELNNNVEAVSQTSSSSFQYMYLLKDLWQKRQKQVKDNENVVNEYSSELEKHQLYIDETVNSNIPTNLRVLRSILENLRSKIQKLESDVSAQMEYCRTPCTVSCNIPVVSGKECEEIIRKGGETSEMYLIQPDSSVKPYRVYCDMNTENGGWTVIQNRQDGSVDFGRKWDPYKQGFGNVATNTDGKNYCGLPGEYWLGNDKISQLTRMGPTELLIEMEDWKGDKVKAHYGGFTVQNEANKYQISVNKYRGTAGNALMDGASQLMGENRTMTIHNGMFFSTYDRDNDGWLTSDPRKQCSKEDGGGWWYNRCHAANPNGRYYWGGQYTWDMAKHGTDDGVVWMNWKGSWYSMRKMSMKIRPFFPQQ
T1 sequence (P02679 27-433 limits assumed): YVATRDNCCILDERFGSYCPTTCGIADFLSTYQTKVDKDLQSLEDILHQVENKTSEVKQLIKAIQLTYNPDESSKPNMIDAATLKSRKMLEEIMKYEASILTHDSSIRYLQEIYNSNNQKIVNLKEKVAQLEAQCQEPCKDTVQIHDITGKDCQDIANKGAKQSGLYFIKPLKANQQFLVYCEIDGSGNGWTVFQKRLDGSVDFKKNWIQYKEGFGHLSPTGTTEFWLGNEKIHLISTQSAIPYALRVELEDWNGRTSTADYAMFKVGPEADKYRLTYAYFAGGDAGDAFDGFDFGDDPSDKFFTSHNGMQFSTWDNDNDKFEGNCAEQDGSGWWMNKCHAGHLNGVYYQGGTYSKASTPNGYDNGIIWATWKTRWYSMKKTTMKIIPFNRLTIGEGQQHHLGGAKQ
Method: The binding of t-PA and S——NO-t-PA to fibrinogen was measured using polystyrene microliter wells (flat-bottom, high binding 96-well EIA plates, cat. #3590, Costar, Cambridge, Mass.). Wells were coated with fibrinogen (0.08 ug/ul) and the remaining binding sites with 2% bovine serum albumin. Quantification of t-PA binding was determined using a Horse-Radish Peroxidase linked sheep antimurine antibody in a colorimetric assay in the presence of O-phenylenediamine, 0.014% H2O2. Color change was measured spectrophotometrically with a Dynatech MR500 Card Reader (Dynatech, Chantilly, Va.) at 490 nm.
Binding of t-PA is reversible and specific, and saturates at 1500–3000 nM; at saturation, 18 ng of t-PA are bound per well ([…] moles t-PA per mole of fibrinogen) with an estimated KDin the range of 15–650 nM. Binding of t-PA and S—NO-t-PA was quantified by ELISA over the concentration range of 150–1500 nM using a mixture containing six murine monoclonal anti-t-PA antibodies.

[2] = molecular target: T2, PAI-1 (Homo sapiens, UniProt P05121); assay: Inhibition of t-PA and S—NO-t-PA enzymatic activity by PAI-1 (S2288); format: biochemical; conditions: direct chromogenic assay with S2288; n=3
T2 construct: gift of Dr. Douglas E. Vaughan
Method: The amidolytic activities of t-PA and its S-nitrosylated derivative were measured using the relatively specific chromogenic substrate, S2288. Substrate hydrolysis was measured spectrophotometrically at 405 nm with a Gilford Response UV/Vis Spectrophotometer (CIBA-Corning, Oberlin, Ohio). Activity was measured at 25° C. in TBS using substrate concentrations varying from 0.1–2.0 mM and t-PA at a concentration of 100 nM. Kinetic parameters were determined from initial rates by double reciprocal plot analysis. The assessment of inhibition of t-PA and S—NO-t-PA enzymatic activity by PAI-1 was made at an enzyme concentration of 10 nM and a molar ratio of t-PA to active PAI-1 of 1.0. The degree of inhibition was determined relative to the initial rates in the absence of the inhibitor.

T2 sequence (P05121 24-402, species assumed): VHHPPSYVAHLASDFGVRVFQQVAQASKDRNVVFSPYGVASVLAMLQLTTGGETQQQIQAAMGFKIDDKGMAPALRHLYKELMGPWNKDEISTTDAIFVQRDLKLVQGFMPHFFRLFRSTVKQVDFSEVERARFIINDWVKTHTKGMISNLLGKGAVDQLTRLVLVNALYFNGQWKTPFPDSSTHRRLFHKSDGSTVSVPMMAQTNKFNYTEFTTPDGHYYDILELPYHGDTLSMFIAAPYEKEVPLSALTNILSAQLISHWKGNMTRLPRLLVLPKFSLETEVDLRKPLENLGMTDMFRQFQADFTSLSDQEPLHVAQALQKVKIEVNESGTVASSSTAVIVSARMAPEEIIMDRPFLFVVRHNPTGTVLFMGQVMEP

S—NO-t-PA: derived from the nitrosylation of tissue-type plasminogen activator (t-PA)
Kd ([1]; Scatchard analysis, read-out: estimated apparent DD for surface-bound fibrinogen): 450 nM | binding isotherm compared with t-PA ([1]; two-way ANOVA): not significantly different | inhibition of hydrolytic activity by PAI-1 [2]: equally effective

t-PA: tissue-type plasminogen activator, provided by Genentech
moles t-PA per mole of fibrinogen at saturation ([1]; at saturation): 0105 moles t-PA per mole of fibrinogen | t-PA bound per well at saturation ([1]; at saturation): 18 ng | concentration at which binding saturates ([1]; fibrinogen-coated wells): 1500 to 3000 nM | Kd ([1]; fibrinogen-coated wells, read-out: estimated KD of binding to fibrinogen): 15 to 650 nM | inhibition of hydrolytic activity by PAI-1 [2]: equally effective
